# Measured values published in patent publication US10130682B2, “Methods of using pigment epithelium derived factor (PEDF) for the treatment and prevention of agent-induced gonadal or uterine toxicity” (Ramot at Tel-Aviv University Ltd., priority 2014, dated 2018).
# Experiments:
# ICR female mice = assay: Number of ovulated oocytes in DXR-treated mice given rPEDF; format: in vivo, mouse; conditions: rPEDF 2 mg/kg SC the day after DXR 6 mg/kg IV; vs DXR alone
# Description: FIG. 2A is an illustration depicting the experimental setting: 7 weeks ICR female mice (n=4/group) were treated with DXR or saline (control), at the day after mice were administrated with rPEDF or TRIS (control). On the fourth day of the experiment mice were induced for superovulation with the standard PMSG/hCG protocol [Ben-Aharon et al. Reproductive Biology and Endocrinology: RB&E (2010) 8: 20]. Mice were sacrificed 16-17 hours after hCG administration.
# DXR damage was evaluated in 7 weeks ICR female mice following treatment for superovulation with pregnant mares' serum (PMSG, 7 IU) SC on day 0 and human chorionic gonadotropin (hCG, […]) SC on day 2. On day 1, mice were administered with DXR (6 mg/kg) or saline (control) IV. Mice ovaries were retrieved on day 3 (FIG. 1A). The ability of rPEDF to overcome the destructive effect of DXR 7 weeks ICR female mice were treated with DXR (6 mg/kg) or saline (control) IV on day 0, rPEDF (2 mg/kg) or TRIS (control) was administered SC on day 1, followed by induction for superovulation with PMSG (7 IU) SC on day 4 and hCG (7 IU) SC on day 6. […]
# cumulus-enclosed oocytes were isolated from the oviductal ampullae into M2 medium (Sigma), 16-18 hrs after hCG administration. Cumulus cells were removed by a brief exposure to 400 IU/ml hyaluronidase (Sigma) and the number of ovulated oocytes was counted under binocular.
# LH-15 cells = assay: MTT cell viability assay in LH-15 granulosa cells under H2O2; format: cell-based, rat; conditions: rPEDF 1 nM or 5 nM with 100 or 200 μM H2O2, 24 hours
# Description: (§1) Rat granulosa cell line LH-15 [Suh et al. J Cell Biol (1992) 119: 439-450] was cultured in hormone-free DMEM-F12 medium, supplemented with penicillin (100 IU/ml; Biological Industries), streptomycin ([…]; Biological Industries) and 10% charcoal-stripped fetal bovine serum (CS-FBS; Invitrogen) (culture medium), as described previously (Breckwoldt et al. 1996, Sasson & Amsterdam 2002). Cells were serum-starved for 16 hours (0.1% CS-FBS) prior to and during recombinant PEDF (rPEDF) stimulation or incubated in 2% CS-FBS during H2O2 stimulation.
# Equal amount of LH-15 cells were seeded onto 6-well plates to a final volume of 500 μl. Following treatments, each well was incubated for 30 minutes with 10 μl of MTT [3-(4, 5-Dimethylthiazol-2-yl)-2, 5-diphenyltetrazolium bromide; 5 mg/ml] followed by an additional 2-4 hours incubation period at 37° C. The reaction was terminated by addition of 110 μl HCl (0.07 M in isopropanol) and OD 560 nm was measured by the SpectraMax 190 microplate reader ([…], Eugene, Oreg., USA).
# BAX = BAX protein level (western blot) in LH-15 cells under H2O2; format: cell-based, rat; conditions: exogenous rPEDF added to H2O2; P<0.05
# Description: as §1
# (§2) Samples were homogenized in cold lysis buffer (20 mM HEPES, 150 mM NaCl and 0.2% Igepal; sigma) and centrifuged at 12,000 rpm, for 15 min, at 4° C.). Proteins were separated by sodium dodecyl sulfate polyacrylamide gel electrophoresis (SDS-PAGE; 10%; Bio-Rad, Israel). Separated proteins were transferred onto nitrocellulose membranes (Whatman GmbH, Germany) in a mini tank transfer unit (TE 22, Amersham, UK). Approximate molecular masses were determined by comparison with the migration of pre-stained protein standards (Bio-Rad). Blots were blocked for 1 hour in TBST (10 mM Tris-HCl, pH=8.0, 150 mM NaCl, 0.05% Tween 20) containing 5% skim-milk (Alba, N.Y., USA) followed by an over-night incubation at 4° C. with primary antibodies. […] Intensity of the protein bands was quantified by Image J […] (NIH).
# SOD-1 = SOD-1 mRNA level (qPCR) in LH-15 cells under H2O2; format: cell-based, rat; conditions: rPEDF 1 nM added to H2O2
# Description: as §1
# (§3) Total RNA was isolated from various tissues (ovaries, eyes) or from granulosa cells, using Trizol reagent (Invitrogen) according to manufacturer's instructions, and quantified with the Nano-Drop spectrophotometer (ND-1000; Thermo Scientific). First-strand cDNA was produced by RT (Maxima™ Reverse transcriptase, Thermo Scientific) from a total of 1 μg RNA, using oligo-dt primers (Thermo Scientific). DNA was amplified using 1 μl RT reaction and 50 pmol gene-specific primers in ReadyMix™ mixture (Sigma). […] Changes in the level of expression of mRNA were detected by SYBR green reagent (SYBR® Green PCR Master Mix, ABI, Carlsbad, Calif., USA) along with 15 ng cDNA and specific primers, on a StepOnePlus Real-Time PCR System (Applied Biosystems, Foster City, Calif., USA).
# GPX-1 = GPX-1 mRNA level (qPCR) in LH-15 cells under H2O2; format: cell-based, rat; conditions: rPEDF 1 nM added to H2O2
# Description: as §1, §3
# AKT [1] = assay: AKT phosphorylation (western blot) in serum-starved LH-15 cells; format: cell-based, rat; conditions: 1 nM rPEDF, various durations, P<0.05
# Description: as §1, §2
# [2] = test system: ovariectomized (OVX) ICR mice; assay: Uterine weight, sub-acute tamoxifen model in ovariectomized mice; format: in vivo, mouse; conditions: rPEDF 10 mg/kg SC with tamoxifen 2.5 μg/mouse daily for 7 days
# Description: (§4) DXR damage was evaluated in 7 weeks ICR female mice following treatment for superovulation with pregnant mares' serum (PMSG, 7 IU) SC on day 0 and human chorionic gonadotropin (hCG, […]) SC on day 2. On day 1, mice were administered with DXR (6 mg/kg) or saline (control) IV. Mice ovaries were retrieved on day 3 (FIG. 1A). The ability of rPEDF to overcome the destructive effect of DXR 7 weeks ICR female mice were treated with DXR (6 mg/kg) or saline (control) IV on day 0, rPEDF (2 mg/kg) or TRIS (control) was administered SC on day 1, followed by induction for superovulation with PMSG (7 IU) SC on day 4 and hCG (7 IU) SC on day 6. Mice ovaries were retrieved on day 7 (FIG. 2A). […] Mice uteri were excised at day 7. […] Mice treated with tamoxifen alone served as control. […] Mice treated with tamoxifen alone served as control.
# (§5) At the end of each experiment, uteri were isolated, excised and weighed.
# VEGF [3] = assay: Uterine VEGF protein (western blot), sub-acute tamoxifen model; format: in vivo, mouse; conditions: rPEDF 10 mg/kg SC with tamoxifen 2.5 μg/mouse daily for 7 days
# Description: as §4
# (§6) Samples were homogenized in cold lysis buffer (20 mM HEPES, 150 mM NaCl and 0.2% Igepal; sigma) and centrifuged at 12,000 rpm, for 15 min, at 4° C.). Proteins were separated by sodium dodecyl sulfate polyacrylamide gel electrophoresis (SDS-PAGE; 10%; Bio-Rad, Israel). […] Approximate molecular masses were determined by comparison with the migration of pre-stained protein standards (Bio-Rad). […] Intensity of the protein bands was quantified by Image J […] (NIH).
# AKT [4] = assay: Uterine AKT phosphorylation (western blot), sub-acute tamoxifen model; format: in vivo, mouse; conditions: 7 days
# Description: as §4, §6
# JNK = assay: Uterine JNK phosphorylation (western blot), sub-acute tamoxifen model; format: in vivo, mouse; conditions: 7 days
# Description: as §4, §6
# OVX ICR mice = assay: Uterine weight, prolonged tamoxifen model in ovariectomized mice; format: in vivo, mouse
# Description: as §4, §5
# VEGF [5] = assay: Uterine VEGF protein (western blot), prolonged tamoxifen model; format: in vivo, mouse; conditions: rPEDF 2 mg/kg SC once every 3 days from day 8 of one-month tamoxifen treatment
# Description: as §4, §6
# CD34 = CD34 immunohistochemical staining of uterine blood vessels, prolonged tamoxifen model; format: in vivo, mouse; conditions: prolonged treatment
# Description: as §4
# Paraffin-embedded sections were deparaffinized, microwave heated while being subjected to an antigen retrieval agent (H-3300, Vector Laboratories Inc., Burlingame, Calif., USA), cooled on ice to room temperature, rinsed in PBS, incubated for 1 hour with PBSTg (0.2% Tween and gelatin in PBS), washed with PBS, blocked for 10 minutes in blocking solution (Cell Marque Corporation, Calif., USA) and incubated overnight with anti PNPLA2 or anti-CD34 primary antibodies. […]
# ERα [6] = assay: Uterine ERα mRNA (qPCR), sub-acute tamoxifen model; format: in vivo, mouse; conditions: sub-acute tamoxifen model
# ERα [7] = assay: Uterine ERα mRNA (qPCR), prolonged tamoxifen model; format: in vivo, mouse; conditions: prolonged tamoxifen model
# ERβ = assay: Uterine ERβ mRNA (qPCR), prolonged tamoxifen model; format: in vivo, mouse; conditions: tamoxifen models taken together
# [8] = test system: progesterone receptor (PR); assay: Uterine PR mRNA (qPCR), prolonged tamoxifen model; format: in vivo, mouse; conditions: tamoxifen models taken together
# Description: DXR damage was evaluated in 7 weeks ICR female mice following treatment for superovulation with pregnant mares' serum (PMSG, 7 IU) SC on day 0 and human chorionic gonadotropin (hCG, […]) SC on day 2. On day 1, mice were administered with DXR (6 mg/kg) or saline (control) IV. Mice ovaries were retrieved on day 3 (FIG. 1A). The ability of rPEDF to overcome the destructive effect of DXR 7 weeks ICR female mice were treated with DXR (6 mg/kg) or saline (control) IV on day 0, rPEDF (2 mg/kg) or TRIS (control) was administered SC on day 1, followed by induction for superovulation with PMSG (7 IU) SC on day 4 and hCG (7 IU) SC on day 6. Mice ovaries were retrieved on day 7 (FIG. 2A). […] Mice uteri were excised at day 7. […] Mice treated with tamoxifen alone served as control. […]
# as §3, with “First-strand cDNA was produced by RT (Maxima™ Reverse transcriptase, Thermo Scientific) from a total of 1 μg RNA, using oligo-dt primers (Thermo Scientific).” left out
# ERα [9] = assay: Uterine ERα protein (western blot), prolonged tamoxifen model; format: in vivo, mouse
# Description: as §4, §6
molecule,measurement,setting,value
"rPEDF: Human recombinant PEDF (NM_002615.4, SEQ ID NO: 1) expressed in E. coli BL21, purified on Ni-NTA His-Bind resin (protein, UniProt P36955 20-418, looked up, His tag) Pigment epithelium-derived …: QNPASPPEEGSPDPDSTGALVEEEDPFFKVPVNKLAAAVSNFGYDLYRVRSSTSPTTNVLLSPLSVATALSALSLGAEQRTESIIHRALYYDLISSPDIHGTYKELLDTVTAPQKNLKSASRIVFEKKLRIKSSFVAPLEKSYGTRPRVLTGNPRLDLQEINNWVQAQMKGKLARSTKEIPDEISILLLGVAHFKGQWVTKFDSRKTSLEDFYLDEERTVRVPMMSDPKAVLRYGLDSDLSCKIAQLPLTGSMSIIFFLPLKVTQNLTLIEESLTSEFIHDIDRELKTVQAVLTVPKLKLSYEGEVTKSLQEMKLQSLFDSPDFSKITGKPIKLTQVEHRAGFEWNEDGAGTTPSPGLQPAHLTFPLDYHLNQPFIFVLRDTDTGALLFIGKILDPRGP",number of ovulated oocytes,ICR female mice,significantly (P<0.05) decreased DXR-induced reduction in number of ovulated oocytes
same,cells viability (MTT) under H2O2,LH-15 cells,significantly (P<0.05) decreased H2O2-induced reduction in cells viability
same,BAX expression under H2O2,BAX,decreased its expression
same,SOD-1 mRNA expression under H2O2,SOD-1,elevated their expression
same,GPX-1 mRNA expression under H2O2,GPX-1,elevated their expression
same,phosphorylation of AKT,AKT [1],"induced prolonged, time-dependent phosphorylation of AKT starting at 5 minutes"
same,"uterine weight, tamoxifen+rPEDF vs tamoxifen alone",[2],significant decrease
same,"uterine VEGF protein levels, tamoxifen+rPEDF vs tamoxifen alone",VEGF [3],significant decrease
same,"uterine AKT phosphorylation, tamoxifen+rPEDF vs tamoxifen alone",AKT [4],significant decrease in phosphorylation of AKT
same,"uterine JNK phosphorylation, tamoxifen+rPEDF vs tamoxifen alone",JNK,increase in phosphorylation of JNK
same,effectiveness of rPEDF treatment by timing of administration,"OVX ICR mice; preliminary analysis, data not shown, prolonged tamoxifen model",more effective when administered following a short period of initiation with tamoxifen
same,"uterine weights, tamoxifen+rPEDF vs tamoxifen alone",OVX ICR mice; rPEDF 2 mg/kg SC once every 3 days from day 8 of one-month tamoxifen treatment,"down-regulated in mice treated with tamoxifen+rPEDF, though not statistically significant (p=0.2)"
same,"uterine VEGF protein expression, tamoxifen+rPEDF vs tamoxifen alone",VEGF [5],significantly decreased
same,"CD34 staining in uteri, tamoxifen+rPEDF vs tamoxifen alone",CD34,decrease in CD34 staining
same,"ERα mRNA levels in uteri, rPEDF with tamoxifen",ERα [6],able to attenuate the sub-acute tamoxifen-induced reduction in ERα mRNA levels
same,"ERα mRNA levels in uteri, rPEDF with tamoxifen",ERα [7],able to reverse the prolonged tamoxifen-induced reduction in ERα mRNA levels
same,"ERβ expression in uteri, rPEDF with tamoxifen",ERβ,without modifying the expression
same,"PR expression in uteri, rPEDF with tamoxifen",[8],without modifying the expression
same,"ERα protein expression in uteri, rPEDF with tamoxifen",ERα [9],down-regulate the expression of ERα protein
